Experimental data as given in article PMC10342119, “ABF1 Positively Regulates Rice Chilling Tolerance via Inducing Trehalose Biosynthesis” (International Journal of Molecular Sciences, 2023).
Values belong to the binder of their own block, whether it stands above or below them.

Key:
His-SAPK10 = biological target: T1, His-SAPK10 (rice (Oryza sativa L.), UniProt Q75H77 1-362); assay: pull-down; GST pull-down on glutathione magnetic agarose beads; 50 mM Tris-HCl pH 7.5, 5% glycerol, 1 mM EDTA, 1 mM DTT, 1 mM PMSF, 0.01% Nonidet P-40, 150 mM KCl; 4 °C for 2 h; blots with anti-His and anti-GST; conditions: both partners purified
T1 construct: SAPK10, SnRK2-type Ser/Thr protein kinase of rice; the CDS was fused into pET-28a; source: E. coli Transetta (DE3), purified (6x His-Tagged Protein Purification Kit); not shown: His, N-terminal, kept
T1 sequence (looked up): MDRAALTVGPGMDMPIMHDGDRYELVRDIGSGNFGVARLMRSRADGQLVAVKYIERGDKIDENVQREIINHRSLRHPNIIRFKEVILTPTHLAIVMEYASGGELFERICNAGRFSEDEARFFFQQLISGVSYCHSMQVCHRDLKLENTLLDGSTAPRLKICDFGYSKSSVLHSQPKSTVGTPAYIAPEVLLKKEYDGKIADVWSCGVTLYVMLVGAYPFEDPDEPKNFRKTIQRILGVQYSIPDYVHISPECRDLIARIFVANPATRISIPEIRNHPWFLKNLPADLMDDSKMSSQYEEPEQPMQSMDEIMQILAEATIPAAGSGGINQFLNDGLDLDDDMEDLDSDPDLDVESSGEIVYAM

GST-ABF1 = biological target: T2, GST-ABF1 (Oryza sativa L. ssp. japonica cv …, UniProt Q0JHF1 1-266); assay: EMSA; binding lost with unlabeled probe; EMSA/gel-shift binding buffer (composition, pH and temperature not stated); 20 fmol biotin-labeled probe; 6% acrylamide gel; conditions: protein: recombinant; tags: N-terminal GST (pGEX-4T-1); chain copies: 2; label: biotin; blunt
T2 sequence: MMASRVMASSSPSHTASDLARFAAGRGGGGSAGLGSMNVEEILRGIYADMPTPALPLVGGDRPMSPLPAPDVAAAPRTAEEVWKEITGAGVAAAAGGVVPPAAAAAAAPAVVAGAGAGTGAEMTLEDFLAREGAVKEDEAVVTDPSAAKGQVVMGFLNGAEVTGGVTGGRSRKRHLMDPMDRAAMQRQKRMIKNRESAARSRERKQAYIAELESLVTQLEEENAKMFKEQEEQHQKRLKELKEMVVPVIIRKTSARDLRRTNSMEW

- binding result (His-SAPK10): binds
B1: GST-ABF1 (natural protein, rice (Oryza sativa L.), UniProt Q0JHF1 1-266, looked up)
chain: T2 sequence
notes: ABF1 (bZIP12), bZIP transcription factor of rice; the CDS was fused into pGEX-4T-1; also called bZIP12; source: E. coli Transetta (DE3), purified (GST-Sefinose Kit); not shown: GST, N-terminal, kept

B2: TPS2 promoter probe (P3, G-box) (dsDNA)
DNA 1: CAGACCTGACGTCAGACGACGATTAGCCACGTGGCACACAGTGCACCCGACACGACGAA
DNA 2: TTCGTCGTGTCGGGTGCACTGTGTGCCACGTGGCTAATCGTCGTCTGACGTCAGGTCTG
- binding result (GST-ABF1): binds
